Laboratory results published in patent US10941182 (Amgen, dated 2021).
Starred links: 1 amine or outer side, 2 acyl side, 3 side chain; linkers in the order of their positions; H or OH if unused. Non-standard residues stand in square brackets, D forms with d. *: point of attachment. AC4Abu = α-carboxy-4-aminobutyric acid, O=C(C(CCN[*:1])C(=O)[*:3])[*:2]; Oic = O=C(O)[C@@H]1C[C@@H]2CCCC[C@@H]2N1; Phe(4-Cl) = N[C@@H](Cc1ccc(Cl)cc1)C(=O)O; γGlu = O=C(O)[C@H](CCC(=O)[*:2])N[*:1]; d(β3hF) = N[C@@H](CC(=O)O)Cc1ccccc1; NMeR = CN[C@@H](CCCNC(=N)N)C(=O)O; Palmitoyl = CCCCCCCCCCCCCCCC(=O)*; Cha = N[C@@H](CC1CCCCC1)C(=O)O; β3hP = O=C(O)C[C@@H]1CCCN1; Nle = CCCC[C@H](N)C(=O)O; AEEA = NCCOCCOCC(=O)O; Aib = CC(C)(N)C(=O)O; Inp = O=C(O)C1CCNCC1; Nip = nipecotic acid; Sar = CNCC(=O)O

Columns and labels:
[1] = biological target: T1, human APJ receptor (human, UniProt P35414 1-380); assay: cell-based or functional assay
T1 sequence (looked up): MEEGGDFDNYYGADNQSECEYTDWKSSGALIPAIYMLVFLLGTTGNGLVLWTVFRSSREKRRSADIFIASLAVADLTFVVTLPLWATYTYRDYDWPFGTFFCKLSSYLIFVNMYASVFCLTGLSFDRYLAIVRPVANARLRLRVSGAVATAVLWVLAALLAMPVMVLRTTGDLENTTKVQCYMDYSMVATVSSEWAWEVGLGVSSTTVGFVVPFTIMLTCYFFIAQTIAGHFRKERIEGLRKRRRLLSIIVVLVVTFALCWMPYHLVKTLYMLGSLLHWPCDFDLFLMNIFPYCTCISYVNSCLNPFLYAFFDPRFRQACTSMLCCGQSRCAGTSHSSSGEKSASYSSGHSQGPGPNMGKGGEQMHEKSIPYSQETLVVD

[2] = biological target: T2, rat APJ receptor (rat, UniProt Q9JHG3 1-377); assay: cell-based or functional assay
T2 sequence (looked up): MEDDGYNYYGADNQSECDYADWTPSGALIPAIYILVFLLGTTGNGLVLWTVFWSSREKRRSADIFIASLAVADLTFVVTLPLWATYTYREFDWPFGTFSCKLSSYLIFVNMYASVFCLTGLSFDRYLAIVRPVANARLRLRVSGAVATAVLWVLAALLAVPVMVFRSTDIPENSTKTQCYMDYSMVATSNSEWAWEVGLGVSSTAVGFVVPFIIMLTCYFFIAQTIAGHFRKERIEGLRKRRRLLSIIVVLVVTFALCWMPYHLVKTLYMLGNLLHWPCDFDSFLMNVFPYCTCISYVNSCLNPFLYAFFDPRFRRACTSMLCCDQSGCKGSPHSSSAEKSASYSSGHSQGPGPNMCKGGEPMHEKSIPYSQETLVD

B1: SEQ ID NO: 582 (peptide)
peptide: Palmitoyl-[AC4Abu][AEEA][AEEA][dQ]RP[NMeR][Cha]SHKG[Nip][Nle][Aib][Phe(4-Cl)]-OH
With B1 the “EC50 Human APJ Receptor” value [1] was 8.5 nM and the “EC50 Rat APJ Receptor” value [2] was 0.0293 µM.

B2: SEQ ID NO: 567 (peptide)
peptide: Palmitoyl-[AC4Abu][AEEA][AEEA][dQ]RP[NMeR][Cha]SHKG[Oic][Nle]P[d(β3hF)]-OH
SMILES: CCCCCCCCCCCCCCCC(=O)NCCC(C(=O)O)C(=O)NCCOCCOCC(=O)NCCOCCOCC(=O)N[C@H](CCC(N)=O)C(=O)N[C@@H](CCCNC(=N)N)C(=O)N1CCC[C@H]1C(=O)N(C)[C@@H](CCCNC(=N)N)C(=O)N[C@@H](CC1CCCCC1)C(=O)N[C@@H](CO)C(=O)N[C@@H](Cc1c[nH]cn1)C(=O)N[C@@H](CCCCN)C(=O)NCC(=O)N1[C@H](C(=O)N[C@@H](CCCC)C(=O)N2CCC[C@H]2C(=O)N[C@@H](CC(=O)O)Cc2ccccc2)C[C@@H]2CCCC[C@@H]21
With B2 the “EC50 Human APJ Receptor” value [1] was 5.15 nM and the “EC50 Rat APJ Receptor” value [2] was 0.00889 µM.

B3: SEQ ID NO: 583 (peptide)
peptide: Palmitoyl-[AC4Abu][AEEA][AEEA][dQ]RP[NMeR][Cha]SHKG[Inp][Nle][Aib][Phe(4-Cl)]-OH
SMILES: CCCCCCCCCCCCCCCC(=O)NCCC(C(=O)O)C(=O)NCCOCCOCC(=O)NCCOCCOCC(=O)N[C@H](CCC(N)=O)C(=O)N[C@@H](CCCNC(=N)N)C(=O)N1CCC[C@H]1C(=O)N(C)[C@@H](CCCNC(=N)N)C(=O)N[C@@H](CC1CCCCC1)C(=O)N[C@@H](CO)C(=O)N[C@@H](Cc1c[nH]cn1)C(=O)N[C@@H](CCCCN)C(=O)NCC(=O)N1CCC(C(=O)N[C@@H](CCCC)C(=O)NC(C)(C)C(=O)N[C@@H](Cc2ccc(Cl)cc2)C(=O)O)CC1
B3 was tested, and the “EC50 Human APJ Receptor” value [1] was 5.96 nM and the “EC50 Rat APJ Receptor” value [2] was 0.0492 µM.

B4: SEQ ID NO: 626 (peptide)
peptide: Palmitoyl-[γGlu][AEEA][AEEA][dQ]RP[NMeR][Cha]SHK[Sar][Oic][Nle][β3hP][d(β3hF)]-OH
SMILES: CCCCCCCCCCCCCCCC(=O)N[C@@H](CCC(=O)NCCOCCOCC(=O)NCCOCCOCC(=O)N[C@H](CCC(N)=O)C(=O)N[C@@H](CCCNC(=N)N)C(=O)N1CCC[C@H]1C(=O)N(C)[C@@H](CCCNC(=N)N)C(=O)N[C@@H](CC1CCCCC1)C(=O)N[C@@H](CO)C(=O)N[C@@H](Cc1c[nH]cn1)C(=O)N[C@@H](CCCCN)C(=O)N(C)CC(=O)N1[C@H](C(=O)N[C@@H](CCCC)C(=O)N2CCC[C@H]2CC(=O)N[C@@H](CC(=O)O)Cc2ccccc2)C[C@@H]2CCCC[C@@H]21)C(=O)O
In the case of B4, the “EC50 Human APJ Receptor” value [1] is reported as 12.2 nM and the “EC50 Rat APJ Receptor” value [2] is reported as 0.0246 µM.

B5: SEQ ID NO: 613 (peptide)
peptide: Palmitoyl-[γGlu][AEEA][AEEA][dQ]RP[NMeR][Cha]SHKG[β3hP][Nle][Phe(4-Cl)]-OH
SMILES: CCCCCCCCCCCCCCCC(=O)N[C@@H](CCC(=O)NCCOCCOCC(=O)NCCOCCOCC(=O)N[C@H](CCC(N)=O)C(=O)N[C@@H](CCCNC(=N)N)C(=O)N1CCC[C@H]1C(=O)N(C)[C@@H](CCCNC(=N)N)C(=O)N[C@@H](CC1CCCCC1)C(=O)N[C@@H](CO)C(=O)N[C@@H](Cc1c[nH]cn1)C(=O)N[C@@H](CCCCN)C(=O)NCC(=O)N1CCC[C@H]1CC(=O)N[C@@H](CCCC)C(=O)N[C@@H](Cc1ccc(Cl)cc1)C(=O)O)C(=O)O
With B5 the “EC50 Human APJ Receptor” value [1] was 1.66 nM and the “EC50 Rat APJ Receptor” value [2] was 0.0388 µM.
